# From the supplement of paper PMC9170038
# System: MS2 coat protein
# Assay: apparent KD of MS2 coat protein; designed switch direction (-1 OFF switch, 1 ON switch): -1; higher = weaker reporter binding
# How it was run: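 Designed RNA switches with common flanks were transcribed on Illumina chips by stalled E. coli RNA polymerase and titrated with SNAP-549-labelled MS2 coat protein, from 0.7 or 1.5 nM doubling to 3 µM, in Tris-HCl pH 7.5 buffer with KCl, MgCl2, BSA, DTT, tRNA and Tween-20. Steps lasted 0.8–1.5 h (lowest) to 10–20 min (highest). Titrations ran without input, with 200 uM small-molecule ligand, or with an oligonucleotide input. Normalised cluster fluorescence was curve-fitted, and apparent KD is the per-design median over clusters.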
# [1] = input ligand: microRNA oligo, concentration not stated
# [2] = Eterna round: R95, input ligand: microRNA oligo, concentration not stated
# [3] = Eterna round: R95, input ligand: FMN 200 uM
# [4] = Eterna round: R95, input ligand: none
Sequence,apparent KD of MS2 coat protein (input ligand: FMN 200 uM) [nM],apparent KD of MS2 coat protein [1] [nM],apparent KD of MS2 coat protein (input ligand: none) [nM],apparent KD of MS2 coat protein [2] [nM],apparent KD of MS2 coat protein [3] [nM],apparent KD of MS2 coat protein [4] [nM]
"GAACUGAAGCAAAGCUUUAGUCGUACAUGAGGAUCACCCAUGUAGGAUAUGGUAGGCAAAGCUUACUAGAAGGACAGAGUGAUC [Mat - Exclusion NG 3 - Mod of JL - D70] (Eterna round: R96, puzzle: Exclusion NG 3)",338,336,336,–,–,–
"UGUUGUUACGUAGGAUAUGGCCAACAGGCCCUAGGAUAUGCGAAAGCAGAAGGAGCGCCAACAGGCGAGAAGGACGGGUUAACA [pwkr exNG2 2xF7 2xFMN.15] (Eterna round: R96, puzzle: Exclusion NG 2)",50.2,78.2,60.5,–,–,–
"GCCGAAAAUGUGAGGAUAUACCUAUGGAUACAUAGGUAGAAGGCACAUGAGGAUCACCCAUGUGUUUCAACGGC [Eli bmx4 4.21] (Eterna round: R97, puzzle: Brourd's mod of Exclusion 4)",94.8,–,22.2,–,–,–
"CCAAUGUAAGGAUAUCGUGCAAGUUUCAAAAGAGGCUUGUGCGAGAAGGUACAUGAGGAUCACCCAUGUAGGUU [Omei Ex4 B2] (Eterna round: R97, puzzle: Exclusion 4)",340,–,78.4,–,–,–
"UUAUUAUAUGUAGGAUAUGCAUAUUGUUAUUAUGCAGAAGGACAUGAGGAUCACCCAUGUAUAUUAUUAUUAUAUAUUAUAUAU [Title] (Eterna round: R96, puzzle: Exclusion NG 1)",–,23.3,–,–,–,–
"UGCCAGCGAGGAUAUGCUAGAGGUGUUCCGUGCUCUAAGGGACAUGAGGAUCACCCAUGUAGAAGGCGCACGUC [Eternabot (L1) Solution 20] (Eterna round: R97, puzzle: Exclusion 2)",187,–,194,–,–,–
UCUUAUUGCAAGGAUAUGCAAAUUAUUUUUUAAGCAGAAGGUGCAACAUGAGGAUCACCCAUGUUUCCGGGCAA [JR_E6_Sub038] (puzzle: Exclusion 6),–,–,–,16.8,–,–
"GAUUAUGCGAGCUUUAGGGACAUGAGGAUCACCCAUGUUCGUCUUGUUGAUCUAGGUACGCUGACAUACCUAAAUCU [JMF 99] (puzzle: Sensor v3, turn-off variant 1)",–,–,–,25.6,19.6,19.7
"ACAAGCUUUUUGCUCGGGUACAUGAGGAUCACCCAUGUUGUGUUUUAUUGUUUUUGAUUGUUCGUGCGCUGCAGGUU [JR_SV3TOV1_Sub074] (puzzle: Sensor v3, turn-off variant 1)",–,–,–,38.5,42.7,58.3
"AGCUGUGGCCGAGGAUAUCACGAACCAUGGAAAACCAUGGAAACUCUACAUGAGGAUCACCCAUGUGAGAAGGCGGUCUCAGCA [Eli eng2 - 022] (Eterna round: R96, puzzle: Exclusion NG 2)",87.7,21.6,35.2,–,–,–
"GGCAGUACAGAGGAUAUCUGGACCUACAGGAAUAGAGAAGGUUGUACAUGAGGAUCACCCAUGUCGACACUCAG [Eternabot (Original) Solution 11] (Eterna round: R97, puzzle: Exclusion 6)",13.2,–,13.7,–,–,–
"AAACGCAGAGGAUAUACAUAUUUUCCUCAUGUGCAGCUUACACAUGAGGAUCACCCAUGUAGAAGGCUGGAAAA [EX2 A.29] (Eterna round: R97, puzzle: Exclusion 2)",300,–,48.6,–,–,–
"UUUAUAUAGUAAGGAUAUGUAUUAUUUUUUUCAACAGAAGGUACUGACAUGAGGAUCACCCAUGUUUUAGUGUGGGCAUGUAGU [JMF's solution 98] (Eterna round: R96, puzzle: Exclusion NG 1)",–,323,–,–,–,–
AUGAAAGUAGGAUAUCGACUGAUUGACAUGAGGAUCACCCAUGUGGUUCUGUGCGGUGUUCGAGAAGGGCUAAGAU [Mageer] (puzzle: Exclusion 5),–,–,–,15.7,23.1,20.9
"CUAGUAUAUCAGGAUAUGAUUUUAUAUAUUGGAUCAGAAGGGAUAACAUGAGGAUCACCCAUGUUAAGGAGUGA [JR_Ex6_Sub040] (Eterna round: R97, puzzle: Exclusion 6)",155,–,45,–,–,–
GAGAAACAUGAGGAUCACCCAUGUGAGGAUAUGAAAAAGAAAAGAAAAGAAAGAAGAAUCAGAAGGCACAAAGA [salish99-ex1_r3_084] (puzzle: Exclusion 1),–,–,–,27.9,28.1,38.9
AAGAAACAUGAGGAUCACCCAUGUGAGGAUAUGAGAAAGAAAAGAAAAGAAAGAAGACUCAGAAGGCACAAAGG [salish99-ex1_r3_040] (puzzle: Exclusion 1),–,–,–,54.7,152,120
